These results are taken from the supplement of paper PMC12042874.

± gives the uncertainty stated by the source.

A short description of the data set: amyloid nucleation score (Sup35N fusion, yeast selection) (log enrichment); library NNK2; higher = more nucleation; inactive = no reads after selection. In a few lines:
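In psi-negative yeast, Sup35N fusions carrying peptides of 20 random codons were induced with 100 μM copper sulfate for 24 hours. The cells then grew 7 days at 30°C on medium lacking adenine and uracil, and plasmid inserts from input and output were Illumina-sequenced, excluding sequences with under 100 input reads. Nucleation score is the DiMSum log enrichment of output over input reads, centred on the mode score of non-aggregating sequences.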
The substance EIYGFLVIICLLYGSLVSRW gave an amyloid nucleation score of -0.2 ± 0.45.
Substance WLVGHKLKYA had an amyloid nucleation score of 0.113 ± 0.22.
For the substance VTVSVGSLYTNFATPKDRMV, the amyloid nucleation score came out at 0.357 ± 0.36.
Regarding NNDDQSFCAWVFNDVQ, the amyloid nucleation score worked out at 0.056 ± 0.6.
The substance LVSVVWTKCRRGQRGVLVAS gave an amyloid nucleation score of 1.06 ± 0.38.
Take IAIKM: the amyloid nucleation score was determined as 3.25 ± 0.08.
TLQCDVNTVLILHVYTTYKS: the amyloid nucleation score is 1.13 ± 0.24.
NPSLELYKYISAIDMGINPP: the amyloid nucleation score entry is “inactive”.
For QIYGCNWLCLQVRHPV, the amyloid nucleation score is 8.061 ± 0.079.
With DYIEKGFPGLPYHSCGSSTF, the amyloid nucleation score entry was “inactive”.
The substance CLIDFWKRDFKSAVDSKGTA yielded an amyloid nucleation score of 0.125 ± 0.65.
In turn, LGIDAYCPWCVYECFSSRGE returned an amyloid nucleation score of 9.586 ± 0.057.
Turning to IVTAGWNLVFRKYADTRMVQ, the amyloid nucleation score was -0.337 ± 1.1.
As to VWEIEGEPPWVQSVCSWDPR, the amyloid nucleation score came out at 3.85 ± 0.057.
For the substance DWRFRSGISISKYLVINLGD, the amyloid nucleation score was 5.79 ± 0.063.
As to VSVGNPFSVNRQVYCPTTEW, the amyloid nucleation score is -1.38 ± 0.62.
The result for ANRKRVK reads 0.223 ± 0.61; that for HKGAARQPRPYMEAVIGPHP, 0.792 ± 0.27; that for FQMMCSIDFNKCLPWLFS, “inactive”.
Take SLISKEFVGLVGGET: the amyloid nucleation score was -0.388 ± 0.25.
Consider GDCNGSLLKWWR, for which the amyloid nucleation score is 0.395 ± 0.55.
For YQTYF, the amyloid nucleation score was -1.08 ± 0.41.
On to YGLPYEVLFNHSHTSNRAYS, for which the amyloid nucleation score was -0.532 ± 0.43.
CMNTISVLSECASTRQTC showed an amyloid nucleation score of -0.068 ± 0.31.
In the case of NLDGIVRMTN, the amyloid nucleation score was -0.543 ± 0.56.
In the case of SRNFVPVHRCVGGF, the amyloid nucleation score result is “inactive”.
For LGHILV the value was “inactive”.
In the case of ALILAVLPSKDPIRVCWYSG, the amyloid nucleation score was 0.04 ± 0.33.
With YSENNLIG, the amyloid nucleation score entry was “inactive”.
With VPCRSPVSGASKRTYLLINV, the amyloid nucleation score was determined as 0.045 ± 0.31.
The result for ELCGLMAEPYRSHILGCGWT reads 3.67 ± 0.066.
Turning to QFRLQWGLLVQCAGDSVLVM, the amyloid nucleation score was -0.085 ± 0.61.
For DIKYCRSFCWLSTIFRTLGP the value was 0.249 ± 0.37; for QSVYLPLRNVIFPVVVSKCE, “inactive”; for PLISRYDYFVCIRILSHSDN, 0.98 ± 0.81.
HSPYRFKSKCQRINMFCVIT: the amyloid nucleation score came out at 5.713 ± 0.047.
For RVNEMWIQI, the amyloid nucleation score is -0.138 ± 0.76.
Consider LGLNLTRDYLMLGKRLKCCR, for which the amyloid nucleation score was -0.993 ± 0.78.
The result for PSWGSLCMSQNHMHLEV reads -0.087 ± 0.42; that for LCGSRKRCGEMLRRKLGKYV, 0.602 ± 0.81; that for SFDTCRSLIRLYHVPPRTVL, -0.276 ± 0.61.
Substance ISGWYVVSSVS had an amyloid nucleation score of 0.912 ± 0.22.
Substance SISWVVYSTV had an amyloid nucleation score of 2.1 ± 0.084.
Consider LFLTDTLMMYINSECR, for which the amyloid nucleation score is 1.75 ± 0.087.
ATHVCVGFTYGFWW came in with an amyloid nucleation score of 2.4 ± 0.14.
The result for TNMPRWECSHGGRECGKGPA reads 1.19 ± 0.18; that for ASSIG, 0.072 ± 0.26; that for IYWTNLSRLKTGANRLRDKK, 0.177 ± 0.8.
FLNNDRYRR: the amyloid nucleation score is -1.67 ± 0.78.
Take SLKEIECFSQ: the amyloid nucleation score result is “inactive”.
In turn, LCHKATSSFYPW came in with an amyloid nucleation score of -0.808 ± 0.45.
In turn, NRKFARWLLLT had an amyloid nucleation score of -0.492 ± 0.61.
IVIGRQCPTWFDVARYR: the amyloid nucleation score was determined as 1.07 ± 0.34.
On to TICYV, for which the amyloid nucleation score is -0.564 ± 0.35.
The result for LVREWHRKNSSGPRIVVRRQ reads 4.18 ± 0.079; that for RCYGVRTHGNLKQIMTKMTE, 0.602 ± 0.24.
As for WYSIIREEAALSYCSSHYKN, the amyloid nucleation score stood at 2.49 ± 0.15.
For LGDVYMWIFKKLLWVNHWDV the value was -0.033 ± 0.44; for CIFWVRCKFYGNLNFGCLYD, 7 ± 0.078.
Turning to SRCEVNTWLLILSGGITPMN, the amyloid nucleation score turned out to be 0.722 ± 0.37.
As to ITKNHSVDDRCTMMYFYLCV, the amyloid nucleation score is 3.76 ± 0.093.
Take KGCEIFLVLAMCDKCSGFL: the amyloid nucleation score was 3.69 ± 0.12.
The result for DCLLSFVRVRSSPSVRY reads 4.47 ± 0.056; that for TNRRILSFGVNL, -0.427 ± 0.78.
For NARCMCWSGINLVTWYLLKE, the amyloid nucleation score came to 7.145 ± 0.04.
In turn, NFKWLILAGGVC yielded an amyloid nucleation score of -0.808 ± 0.41.
With FCIVQIMDVTVLGSTSATID, the amyloid nucleation score was 5.592 ± 0.054.
Take IRFYGS: the amyloid nucleation score result was “inactive”.
In turn, DINKFVAVWCHYLSGKGLLP returned an amyloid nucleation score of -0.359 ± 0.26.
With SNCYLKRSYGFRDIITKIRY, the amyloid nucleation score stood at 1.24 ± 0.14.
KNNIWVIYPFVNG came in with an amyloid nucleation score of 6.434 ± 0.064.
For RLLSTCMILMMASRTCYVYN the value was 0.69 ± 0.52.
SWHVVQAVIDVVDREV came in with an amyloid nucleation score of 0.967 ± 0.22.
Regarding DSSCFIIRLHSEFMLGSRSF, the amyloid nucleation score is -0.715 ± 0.79.
GVQETSYVALCSSLVTRTFV had an amyloid nucleation score of 1.16 ± 0.44.
For GWGFFIDSYQHGLLM the value was -1.27 ± 0.54.
Turning to HQIHLSY, the amyloid nucleation score is -0.593 ± 1.1.
For LGLAVKSRTPDLTGGPRASE the value was 1.68 ± 0.18.
As for CRYRLYYRCEVLEYLSDFTW, the amyloid nucleation score is -0.492 ± 0.56.
The substance LFAKDGLRSRLKEC gave an amyloid nucleation score of -0.033 ± 0.27.
CLGNVCNSFNWLDVRACVWR gave an amyloid nucleation score of 1.52 ± 0.23.
TKVGYLNS: the amyloid nucleation score entry is “inactive”.
Regarding LFVIGLLSGVSICVYCRSWS, the amyloid nucleation score worked out at 3.41 ± 0.11.
For AAFQSMENCCAFCSVRRQES the value was -0.406 ± 0.38; for IYRLDHRACP, 1.03 ± 0.38; for SCSWLLSEIGCESVEIRRTV, 5.51 ± 0.082.
For RERMRY the value was 1.64 ± 0.18; for KSAIVRYQVGRVALEFFAAG, “inactive”.
IVVNNCSEVLEVGSDDAVKR: the amyloid nucleation score entry is “inactive”.
Consider WNLCGCAFDQLYKGVRSVNG, for which the amyloid nucleation score amounted to 3.84 ± 0.066.
Take YMERIYRWYSQCNRCQVRLW: the amyloid nucleation score is -0.644 ± 0.54.
For CSEVLRTFGKARHTEAR the value was 0.501 ± 0.2; for YYLPLGYDWPWSYSKCSNTR, 4.04 ± 0.072; for PSSKVL, 0.024 ± 0.55.
WRKCKLFFTLYHLHTVELWI registered an amyloid nucleation score of -0.826 ± 0.49.
In turn, RFLEALTVRHCSPL registered an amyloid nucleation score of 4.71 ± 0.06.
In turn, LKISVCQLRLFKLGARTRGW had an amyloid nucleation score of 0.158 ± 0.8.
For IRCGREGLRR the value was “inactive”.
The result for LFEDVMRKGRWRDASGRWKH reads 3.27 ± 0.17; that for LVFRMQHSLTHGLLSEPGNR, 2.28 ± 0.17.
SIFFNRASCLRRV: the amyloid nucleation score entry is “inactive”.
Regarding HVSFLIDRNTMRGLMASSNN, the amyloid nucleation score result was “inactive”.
The substance NIAVPEKAVYTYSPSETQAL displayed an amyloid nucleation score of -0.583 ± 0.55.
